Patent publication US20110190270A1, “METHODS OF TREATING THROMBOEMBOLIC DISORDERS” (MONASH UNIVERSITY, priority 2008, published 2011)

Test system: occlusive blood clot in the carotid artery
Assay: carotid artery occlusion model, clot lysis and vascular reperfusion
Assay type: in vivo, mice
Details: regimens A-H of FIGS. 8 and 9, blood flow monitored 60 minutes
Method: Mice were anaesthetised and minor surgery performed to expose to the carotid artery and jugular vein. A Doppler flow probe was placed around the carotid artery to monitor blood flow through this blood vessel, and a catheter placed in the jugular vein to administer drugs. A blood clot was formed in the carotid artery of the mouse through the delivery of a small electric current (4 mA for 1.25 min^g), resulting in complete blockage of blood flow through the vessel (blood flow=0 mls/min), as measured by the flow probe. After vessel blockade was established, various combinations of t-PA, urokinase, heparin, hirudin, HA1077 and Y27632 were administered, using concentrations and regimens indicated (A-H in FIGS. 8 and 9) and examined for their efficacy to dissolve blood clots and restore blood flow. Blood flow was monitored in mice receiving each drug combination for a further 60 minutes, and blood flow measurements recorded using computer software.

B1: t-PA: thrombolytic agent (protein, UniProt P00750 36-562, looked up)
Tissue-type plasminogen …: SYQVICRDEKTQMIYQQHQSWLRPVLRSNRVEYCWCNSGRAQCHSVPVKSCSEPRCFNGGTCQQALYFSDFVCQCPEGFAGKCCEIDTRATCYEDQGISYRGTWSTAESGAECTNWNSSALAQKPYSGRRPDAIRLGLGNHNYCRNPDRDSKPWCYVFKAGKYSSEFCSTPACSEGNSDCYFGNGSAYRGTHSLTESGASCLPWNSMILIGKVYTAQNPSAQALGLGKHNYCRNPDGDAKPWCHVLKNRRLTWEYCDVPSCSTCGLRQYSQPQFRIKGGLFADIASHPWQAAIFAKHRRSPGERFLCGGILISSCWILSAAHCFQERFPPHHLTVILGRTYRVVPGEEEQKFEVEKYIVHKEFDDDTYDNDIALLQLKSDSSRCAQESSVVRTVCLPPADLQLPDWTECELSGYGKHEALSPFYSERLKEAHVRLYPSSRCTSQHLLNRTVTDNMLCAGDTRSGGPQANLHDACQGDSGGPLVCLNDGRMTLVGIISWGLGCGQKDVPGVYTKVTNYLDWIRDNMRP
  clot lysis and re-establishment of blood flow (in words): relatively moderate in its ability to lyse occlusive blood clots
